Laboratory results published in US5861254.

Assays:
[1] = biological target: T1, L-selectin-IgG1 Fc fusion (LS-Rg) (Homo sapiens) (UniProt P14151); experiment: SPR; conditions: 2'-F pyrimidines, 2'-OH purines, SHMCK buffer with Ca and Mg
T1 sequence: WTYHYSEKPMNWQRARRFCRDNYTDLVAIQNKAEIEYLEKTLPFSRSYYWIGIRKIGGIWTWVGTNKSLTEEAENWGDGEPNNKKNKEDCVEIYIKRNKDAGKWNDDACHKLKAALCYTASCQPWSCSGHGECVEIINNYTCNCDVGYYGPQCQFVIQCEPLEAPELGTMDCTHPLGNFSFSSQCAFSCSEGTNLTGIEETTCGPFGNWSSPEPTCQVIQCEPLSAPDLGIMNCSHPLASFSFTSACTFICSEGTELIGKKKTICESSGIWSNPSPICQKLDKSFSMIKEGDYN

[2] = biological target: T1, L-selectin-IgG1 Fc fusion (LS-Rg) (Homo sapiens); experiment: filter; conditions: 2'-F pyrimidines, 2'-OH purines

“UCGGGCGGAAUUCAGGNNNNNNNNNNNNNNNNNNNNNNNNNNNNNNCCGCAUCGUCCUCCC [Flow Cell SELEX Rnd 3 pool]” showed a Kd ([1]; ka 4.9e4, kd 1.9e-3) of 39 nM and a Kd ([2]; nitrocellulose filter binding, pool plateau below 20% bound in final mixtures) of 0.16 nM.

“UCGGGCGGAAUUCAGGNNNNNNNNNNNNNNNNNNNNNNNNNNNNNNCCGCAUCGUCCUCCC [Flow Cell SELEX Rnd 4 pool]” was tested, and the Kd ([1]; ka 7.5e4, kd 1.8e-3) was 24 nM.

For “UCGGGCGGAAUUCAGGNNNNNNNNNNNNNNNNNNNNNNNNNNNNNNCCGCAUCGUCCUCCC [Flow Cell SELEX Rnd 5 pool]”, the Kd ([1]; ka 3.7e5, kd 1.5e-3) was 4.1 nM and the Kd ([2]; only slightly improved over round 3 (160 pM), plateau below 20% bound) was less than 1 nM.

“UCGGGCGGAAUUCAGGNNNNNNNNNNNNNNNNNNNNNNNNNNNNNNCCGCAUCGUCCUCCC [Flow Cell SELEX Rnd 2 pool]” showed a Kd ([1]; ka 1.7e4, kd 1.8e-3) of 110 nM.
